The series addresses PARP-1 WT (human) (UniProt P09874). The experiment in a line: fluorescence polarization. Particulars: 250 mM NaCl, FP affinity: 12 mM Hepes pH 8.0, 250 mM NaCl, 4% glycerol, 5.7 mM beta-mercaptoethanol, 0.05 mg/ml BSA, RT, 5 nM probe, FP competition: same but 60 mM KCl, 8 mM. A general note: Polarisation of emitted light reports the rotation of a fluorescent probe.

PARP-1 WT (human), sequence (P09874 whole entry): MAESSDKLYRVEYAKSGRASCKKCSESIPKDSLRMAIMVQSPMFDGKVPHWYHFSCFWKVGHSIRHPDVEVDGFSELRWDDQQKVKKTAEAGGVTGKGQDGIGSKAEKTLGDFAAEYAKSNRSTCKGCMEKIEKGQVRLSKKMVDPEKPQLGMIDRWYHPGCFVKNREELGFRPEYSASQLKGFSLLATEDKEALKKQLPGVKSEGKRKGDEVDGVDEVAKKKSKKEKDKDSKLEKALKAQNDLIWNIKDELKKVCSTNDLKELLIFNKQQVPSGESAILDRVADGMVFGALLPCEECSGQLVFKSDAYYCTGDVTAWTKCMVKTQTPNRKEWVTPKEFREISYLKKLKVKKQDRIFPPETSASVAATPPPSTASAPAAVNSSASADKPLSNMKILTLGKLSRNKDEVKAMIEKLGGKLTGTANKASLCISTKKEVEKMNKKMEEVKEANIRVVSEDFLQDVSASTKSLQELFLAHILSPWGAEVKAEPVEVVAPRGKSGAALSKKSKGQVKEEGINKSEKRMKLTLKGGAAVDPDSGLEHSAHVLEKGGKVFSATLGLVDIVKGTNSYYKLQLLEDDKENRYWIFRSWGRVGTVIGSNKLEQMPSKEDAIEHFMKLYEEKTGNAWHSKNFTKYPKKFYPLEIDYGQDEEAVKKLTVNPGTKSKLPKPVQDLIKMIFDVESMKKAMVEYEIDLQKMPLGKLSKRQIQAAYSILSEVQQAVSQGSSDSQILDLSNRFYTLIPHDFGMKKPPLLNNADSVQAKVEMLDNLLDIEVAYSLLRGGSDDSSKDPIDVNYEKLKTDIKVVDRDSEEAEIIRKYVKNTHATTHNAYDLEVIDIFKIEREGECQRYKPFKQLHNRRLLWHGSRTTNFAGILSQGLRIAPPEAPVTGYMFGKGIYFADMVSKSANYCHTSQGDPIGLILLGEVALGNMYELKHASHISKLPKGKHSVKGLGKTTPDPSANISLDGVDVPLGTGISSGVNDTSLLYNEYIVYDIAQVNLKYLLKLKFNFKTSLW

With “GCTGAGCTTCTGGTGAAGCTCAGCTCGCGGCAGCTGGTGCTGCCGCGA [nick dumbbell DNA, FAM]”, where the note is “100 uM BAD”, the binding signal (fold higher affinity than without BAD) was found to be 10. Where the note is “100 uM benzamide, scale: fold”, the binding signal is 1.
